This is an account of results in patent publication US20230183352A1 (published 2023).

Residue numbers refer to the chain shown, from its start.

The target in test [1] is T1, Claudin 18.2 (CLDN18.2), expressed on CHOS-CLDN 18.2 / HEK293-CLDN 18.2 / HCC827-CLDN 18.2 cells (human, UniProt P56856-2 1-261). The test can be described thus: cell-based or functional assay.
The target in test [2] is T1, Claudin 18.2 (CLDN18.2), expressed on …. Briefly: FACS, CHOS-CLDN18.2 cells, 1.250 µg/ml. (In general: In flow cytometry, cells or beads pass a laser one at a time.)
The target is the same in test [3]. The test can be described thus: FACS, CHOS-CLDN18.2 cells, 0.020 µg/ml.
Test [4] has the same target. The test can be described thus: FACS, CHOS-CLDN18.2 cells, 5 µg/ml.
Test [5] shares this target. Briefly: FACS, CHOS-CLDN18.2 cells, 20 µg/ml.
Test [6] has the same target. Briefly: FACS, MFI on CHOS-CLDN18.2 over MFI on CHOS-CLDN18.1, 10 µg/ml.
The target is the same in test [7]. Briefly: FACS, CHOS-CLDN18.2 cells, 0 µg/ml (background).
Test [8] shares this target. Briefly: FACS, CHOS-CLDN18.2 cells, 0.078 µg/ml.
Test [9] shares this target. The test can be described thus: FACS, CHOS-CLDN18.2 cells, 0.005 µg/ml.
For test [10] the target is unchanged. Briefly: FACS, CHOS-CLDN18.2 cells.
Test [11] has the same target. The test can be described thus: FACS, CHOS-CLDN18.2 cells, 0.313 µg/ml.
The target is the same in test [12]. The test can be described thus: FACS, CHOS-CLDN18.2 cells, 10 µg/ml.
Test [13] addresses T2, PD-L1 Protein, Cynomolgus, Recombinant (His Tag) (cynomolgus, UniProt G7PSE7 19-239).
T2 construct: Bought protein; also called QPP10.1; cynoPD-L1; not shown: His tag
Briefly: SPR, Biacore T200, antibody captured.

The target in test [14] is T3, Biotin QP004.3 (biotin-PDL1-FC) (human, UniProt Q9NZQ7 19-238, limits assumed, biotinylated (sites not given)). Briefly: PD-L1 binding ELISA, antibody coated, biotin-PDL1-FC titrated. For orientation: In an ELISA, binding on a coated surface is turned into a signal by an enzyme label.
Test [15] has as its target T3, Biotin QP004.3 (biotin-PDL1-FC). The test can be described thus: PD-L1/PD-1 blocking ELISA, PD1-FC coated; row labelled EC50; competitor PD1-FC.
Test [16] addresses T4, PD-L1 Protein, Human, Recombinant (His Tag) (human, UniProt Q9NZQ7 19-239).
T4 construct: Bought protein; also called QPP09.1; SinoBiologic 10084-H08H
Briefly: SPR Biacore T200, antibody captured, PD-L1 His as analyte, 1:1 binding. A general note: SPR reads the build-up and loss of mass on a sensor chip optically.

For test [17], the target named is T5, PD-L1 Protein, Cynomolgus, Recombinant (His Tag) (cynomolgus).
T5 construct: Bought protein; also called QPP10.1; SinoBiologic 90251-C08H
The test is described as above.

T4 sequence (Q9NZQ7 19-239 limits assumed): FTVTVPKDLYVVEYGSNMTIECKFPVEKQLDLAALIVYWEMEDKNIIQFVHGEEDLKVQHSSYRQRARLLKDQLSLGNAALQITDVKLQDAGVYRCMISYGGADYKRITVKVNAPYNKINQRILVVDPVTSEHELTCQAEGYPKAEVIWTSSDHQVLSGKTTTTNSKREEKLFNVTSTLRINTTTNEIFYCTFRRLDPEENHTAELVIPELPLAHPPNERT
T2 sequence (G7PSE7 entry or part of it): as the sequence (Q9NZQ7 19-239 limits assumed) above, with A33T, A34S, S62N, R68Q, Q82R, F173L, T185A, T192I, H215L counted along it
T3 sequence (Q9NZQ7 19-238 limits assumed): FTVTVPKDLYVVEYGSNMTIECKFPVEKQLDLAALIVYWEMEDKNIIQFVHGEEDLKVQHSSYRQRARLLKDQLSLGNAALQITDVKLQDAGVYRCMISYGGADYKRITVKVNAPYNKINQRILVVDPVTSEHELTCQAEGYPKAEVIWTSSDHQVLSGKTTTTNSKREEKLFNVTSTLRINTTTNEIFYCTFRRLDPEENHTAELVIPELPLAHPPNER

B1: QP14371433 (antibody, human IgG1, kappa, V domains shown)
VH: EVQLVESGGGLVKPGGSLRLSCAASGFTFSNYAMSWVRQAPGKGLEWVASIISGGRTYYLDSEKGRFTISRDNAKNSLYLQMNSLRAEDTAVYYCTRIYYGNSFDYWGQGTLVTVSS
VL: DIVMTQSPDSLAVSLGERATINCKSSQSLLNSGNQKNYLTWYQQKPGQPPKLLIYWASTRESGVPDRFSGSGSGTDFTLTISSLQAEDVAVYYCQNDYSYPFTFGQGTKLEIKR
notes: Humanized from QP190191; also called QP14331437
As a reminder, the EC50 is the concentration giving half of the maximal effect. Higher therefore signals a need for much substance. For the molecule B1, in test [1], the “EC50 of killing, ADCC (PBMC, HEK293-CLDN18.2 cells)” value was determined as 0.0162 µg/mL; the “Killing percentage, ADCC (PBMC, HEK293-CLDN18.2 cells), 0 µg/ml” value was found to be 9.02%; the “Killing percentage, ADCC (PBMC, HEK293-CLDN18.2 cells), 0.0001024 µg/ml” value is 8.31%; the “Killing percentage, ADCC (PBMC, HEK293-CLDN18.2 cells), 0.000512 µg/ml” value stood at 10.5%. Also, in test [1], the “Killing percentage, ADCC (PBMC, HEK293-CLDN18.2 cells), 0.00256 µg/ml” value stood at 13.3%; the “Killing percentage, ADCC (PBMC, HEK293-CLDN18.2 cells), 0.0128 µg/ml” value amounted to 31.3%; the “Killing percentage, ADCC (PBMC, HEK293-CLDN18.2 cells), 0.064 µg/ml” value stood at 41.5%; the “Killing percentage, ADCC (PBMC, HEK293-CLDN18.2 cells), 0.32 µg/ml” value stood at 49.6%. Besides, in test [1], the “Killing percentage, ADCC (PBMC, HEK293-CLDN18.2 cells), 1.6 µg/ml” value worked out at 56.4%; the “Killing percentage, ADCC (PBMC, HEK293-CLDN18.2 cells), 8 µg/ml” value amounted to 53.8%; the “Killing percentage, ADCC (PBMC, HEK293-CLDN18.2 cells), 40 µg/ml” value stood at 52.3%. For the same molecule, the FACS reading in test [2] was found to be 133000. In test [3], this molecule had an FACS reading of 10800. The FACS reading in [4] was 174000. The FACS reading in [5] was determined as 115000. For the same molecule, the “CLDN18.2/CLDN18.1 (MFI ratio)” value in [6] came to 448. The same molecule came in with an FACS reading in test [7] of 754. In [8], this molecule yielded an FACS reading of 17700. Also, in test [9], the FACS reading was 3730. In [10], the response was half-maximal at 0.36 µg/mL (EC50) and the max worked out at 174000. Besides, the FACS reading in [11] turned out to be 65900. The MFI in test [12] is 433000.

B2: QP322 (Fc fusion)
chain: EVQLLESGGGLVQPGGSLRLSCAASGFTYGTYAMSWFRQAPGKGREGVACIDIYGRASYTDPVKGRFTISQDNSKNTLYLQMNSLKAEDTAVYYCAARDFGYCTASWVHEGFSRYWGQGTLVTVSS
notes: Humanized from QP1162; also called 1162-V3; humanized nanobody QP322; not shown: human IgG1-FC constant region fused to the C terminal of the VHH
For B2, in test [13], the binding result is “binds”.

B3: QP322 (Fc fusion)
chain: B2 chain
notes: Humanization design of QP1162; VHH at the N-terminal of FC; also called 1162-V3; QD322; not shown: human IgG1-FC constant region fused to the C terminal of the VHH
Usually IC50 stands for the midpoint of a concentration-inhibition curve. For orientation: Kd means the constant that tells how readily two partners part at equilibrium. In general, koff refers to the first-order rate constant of dissociation. As a reminder, the kon is the second-order rate constant of association. In [14], B3 showed an EC50 of 0.00753 µg/mL. For the same molecule, in test [15], the IC50 is 5.12 nM. Also, in test [16], the Kd came out at 2.37 nM, the koff is 0.00311 s⁻¹ and the kon came to 1.31e+06 M⁻¹ s⁻¹. Further, in [17], the Kd was 5.39 nM, the koff worked out at 0.00354 s⁻¹ and the kon stood at 657000 M⁻¹ s⁻¹.

B4: QP1162 (VHH)
VHH: B2 chain with E1Q, L5V, L11S, P14S, G44E, S74A, A87P, V92M, L121Q
notes: also called nanobody QP1162; camel nanobody QP1162
As to B4, the binding result in test [13] is given as “binds”.

B5: QP325 (Fc fusion)
chain: B2 chain with R45L, A57T, K86R
notes: Humanized from QP1166; also called 1166-V3; humanized antibody QP325; not shown: human IgG1-FC constant region fused to the C terminal of the VHH
Consider B5, for which, in test [13], the binding result is reported as “binds”.
